Results from patent publication US11180770B2, “HPPD variants and methods of use” (BASF Agricultural Solutions Seed US LLC, priority 2017, dated 2021).

System: HPPD polypeptides
Assay: coupled HPPD activity assay: turnover and residual turnover in crude extracts
Format: biochemical, Pseudomonas fluorescens
Details: for Residual turnover [%]: 100 μM Cmpd. 1, signal change with inhibitor divided by signal change without inhibitor; for Turnover: absence of Cmpd. 1, kinetic changes in absorbance (OD) at 320 nm, 30 min; for Turnover / Residual turnover: high substrate concentration; for Residual turnover: presence of 100 μM Cmpd. 1, changes in absorbance (OD) at 320 nm
Procedure: The activity of HPPD polypeptides was determined in absence or presence of HPPD inhibitors using the coupled HPPD activity assay (FIG. 1).
For the determination of the residual activity, the apparent kinetic constant (kapp) of the determined substrate conversion was measured as kinetic changes in absorbance (OD) at 320 nm in a coupled assay, in that homogentisate (HGA) formed by HPPD from HPP is directly converted into the well absorbing molecule maleylacetoacetate (MAA) by a second enzyme homogentisate dioxygenase (HGD), applied in excess uniformly in all assays (see FIG. 1). The measurements were performed in 384 micro titer plates (Greiner Bio-One GmbH, Frickenhausen, Germany) by plate readers (Tecan infinite M1000 or M1000PRO, Tecan, Männedorf, Switzerland). The kcat/kM ratio of an enzymatic activity is proportional to the apparent kinetic constant kapp and is proportional to kcat/kM*[E] ([E]=enzyme concentration). […] As both kapp measurements in the presence and absence of inhibitor were performed by use of the identical enzyme sample, crude or purified, and thereby at the same enzyme concentration, the enzyme concentration eliminates from the calculation of residual activity and the ratio of both kapp directly indicates the change of kM due to the inhibition.
The assay solution used for determination of residual activities in raw HPPD polypeptide samples was composed by 200 mM sodium phosphate (Merck, Darmstadt, Germany, pH 7.0), 5 mM MgCl2 (Merck, Darmstadt, Germany), 20 mM ascorbate (Sigma-Aldrich, St. Louis, USA), 1 mM DTT (Sigma-Aldrich, St. Louis, USA), 0.1% Pluronic F-68 (Sigma-Aldrich, St. Louis, USA), 40 μM FeSO4 (Sigma-Aldrich, St. Louis, USA), about 8 mg/ml purified HGD and 500 μM HPP from a 1 M stock solution in DMSO (Sigma-Aldrich, St. Louis, USA) and equilibrated for 20 min on ice. For every HPPD polypeptide sample two assays were performed in quadruplets, whereby 5 μl of HPPD polypeptide sample were mixed firstly with 5 μl buffer (1×BugBuster®; (Merck, Darmstadt, Germany); in 140 mM Tris, pH 7.8, with 1:25000 diluted BNase®; Qiagen, Hilden, Germany)) or 5 μl inhibitor diluted in the same buffer from a 0.1 M stock solution in DMSO (200 μM resulting in 100 μM in the HPPD polypeptide/inhibitor sample) in the reference and inhibition assay, respectively, and subsequently with 10 μl assay solution. The change in absorbance at 320 nm was followed in 1 min intervals for 30 min. The kapp values were calculated as signal slope over time in the early phase of the kinetic reaction, usually for the first 5-10 minutes of the measurements. Additionally and according to the calculated residual activity, the total conversion, i.e. the absolute change in signal, in the 30 min timeframe was monitored as measure of turnover, and a residual turnover was calculated by dividing the change in signal in the presence of inhibitor by the change in signal in the reference sample without inhibitor.
Residual turnover were determined according to Example 3 by measuring total change in signal in the presence and absence of Cmpd. 1 (2-chloro-3-(methylsulfanyl)-N-(1-methyl-1H-tetrazol-5-yl)-4-(trifluoromethyl)benzamide). For each mutant HPPD polypeptide, the total change in signal without HPPD inhibitor herbicides served for normalization of the total change in signal in the presence of the herbicide.

Molecule | Residual turnover [%] | Turnover | Residual turnover
5 (protein, mutant HPPD polypeptide) MADLYENPMGLMGFEFIEFASPTPGTLEPIFEIMGFTKVATHRSKNVHLYRQGEINLILNNEPNSIASYFAAEHGPSVCGMAFRVKDSQKAYNRALELGAQPIHIDTGPMELNLPAIKGIGGAPLYLIDRFGEGSSIYDIDFVYLEGVERNPVGAGLKVIDHLTHNVYRGRMVYWANFYEKLFNFREARYFDIKGEYTGLTSKAMSAPDGMIRIPLNEESSKGAGQIEEFLMQFNGEGIQHVAFLTDDLVKTWDALKKIGMRFMTAPPDTYYEMLEGRLPDHGEPVDQLQARGILLDGSSVEGDKRLLLQIFSETLMGPVFFEFIQRKGDDGFGPDSFKVLFESIERDQVRRGVLTAD | 38% | 0.157 | 0.059
8 (protein, mutant HPPD polypeptide) MADLYENPMGLMGFEFIEFASPTPGTLEPIFEIMGFTKVATHRSKNVHLYRQGEINLILNNEPNSIASYFAAEHGPSVCGMAFRVKDSQKAYNRALELGAQPIHIDTGPMELNLPAIKGIGGAPLYLIDRFGEGSSIYDIDFVYLEGVERNPVGAGLKVIDHLTHNVYRGRMVYWANFYEKLFNFREARYFDIKGEYTGLTSKAMSAPDGMIRIPLNEESSKGAGQIEEFLMQFNGEGIQHVAFLTDDLVKTWDALKKIGMRFMTAPPDNYYEMLEGRLPDHGEPVDQLQARGILLDGSSVEGDKRLLLQIFSETLMGPVFFEFIQRKGDDGFGPDSFKVLFESIERDQVRRGVLTAD | 50% | 0.107 | 0.054
13 (protein, mutant HPPD polypeptide) MADLYENPMGLMGFEFIEFASPTPGTLEPIFEIMGFTKVATHRSKNVHLYRQGEINLILNNEPNSIASYFAAEHGPSVCGMAFRVKDSQKAYNRALELGAQPIHIDTGPMELNLPAIKGIGGAPLYLIDRFGEGSSIYDIDFVYLEGVERNPVGAGLKVIDHLTHNVYRGRMVYWANFYEKLFNFREARYFDIKGEYTGLTSKAMSAPDGMIRIPLNEESSKGAGQIEEFLMQFNGEGIQHVAFLTDDLVKTWDALKKIGMRFMTAPGDNYYEMLEGRLPDHGEPVDQLQARGILLDGSSVEGDKRLLLQIFSETLMGPVFFEFIQRKGDDGFGPDSFKVLFESVERDQVRRGVLTAD | – | 0.024 | –
10 (protein, mutant HPPD polypeptide) MADLYENPMGLMGFEFIEFASPTPGTLEPIFEIMGFTKVATHRSKNVHLYRQGEINLILNNEPNSIASYFAAEHGPSVCGMAFRVKDSQKAYNRALELGAQPIHIDTGPMELNLPAIKGIGGAPLYLIDRFGEGSSIYDIDFVYLEGVERNPVGAGLKVIDHLTHNVYRGRMVYWANFYEKLFNFREARYFDIKGEYTGLTSKAMSAPDGMIRIPLNEESSKGAGQIEEFLMQFNGEGIQHVAFLTDDLVKTWDALKKIGMRFMTAPGDTYYEMLEGRLPDHGEPVDQLQARGILLDGSSVEGDKRLLLQIFSETLMGPVFFEFIQRKGDDGFGPDSFKVLFESVERDQVRRGVLTAD | 56% | 0.125 | 0.070
9 (protein, mutant HPPD polypeptide) MADLYENPMGLMGFEFIEFASPTPGTLEPIFEIMGFTKVATHRSKNVHLYRQGEINLILNNEPNSIASYFAAEHGPSVCGMAFRVKDSQKAYNRALELGAQPIHIDTGPMELNLPAIKGIGGAPLYLIDRFGEGSSIYDIDFVYLEGVERNPVGAGLKVIDHLTHNVYRGRMVYWANFYEKLFNFREARYFDIKGEYTGLTSKAMSAPDGMIRIPLNEESSKGAGQIEEFLMQFNGEGIQHVAFLTDDLVKTWDALKKIGMRFMTAPADTYYEMLEGRLPDHGEPVDQLQARGILLDGSSVEGDKRLLLQIFSETLMGPVFFEFIQRKGDDGFGPDSFKVLFESVERDQVRRGVLTAD | 52% | 0.102 | 0.053
6 (protein, mutant HPPD polypeptide) MADLYENPMGLMGFEFIEFASPTPGTLEPIFEIMGFTKVATHRSKNVHLYRQGEINLILNNEPNSIASYFAAEHGPSVCGMAFRVKDSQKAYNRALELGAQPIHIDTGPMELNLPAIKGIGGAPLYLIDRFGEGSSIYDIDFVYLEGVERNPVGAGLKVIDHLTHNVYRGRMVYWANFYEKLFNFREARYFDIKGEYTGLTSKAMSAPDGMIRIPLNEESSKGAGQIEEFLMQFNGEGIQHVAFLTDDLVKTWDALKKIGMRFMTAPADNYYEMLEGRLPDHGEPVDQLQARGILLDGSSVEGDKRLLLQIFSETLMGPVFFEFIQRKGDDGFGPDSFKVLFESIERDQVRRGVLTAD | 50% | 0.165 | 0.082
7 (protein, mutant HPPD polypeptide) MADLYENPMGLMGFEFIEFASPTPGTLEPIFEIMGFTKVATHRSKNVHLYRQGEINLILNNEPNSIASYFAAEHGPSVCGMAFRVKDSQKAYNRALELGAQPIHIDTGPMELNLPAIKGIGGAPLYLIDRFGEGSSIYDIDFVYLEGVERNPVGAGLKVIDHLTHNVYRGRMVYWANFYEKLFNFREARYFDIKGEYTGLTSKAMSAPDGMIRIPLNEESSKGAGQIEEFLMQFNGEGIQHVAFLTDDLVKTWDALKKIGMRFMTAPGDNYYEMLEGRLPDHGEPVDQLQARGILLDGSSVEGDKRLLLQIFSETLMGPVFFEFIQRKGDDGFGPDSFKVLFESIERDQVRRGVLTAD | 42% | 0.149 | 0.063
12 (protein, mutant HPPD polypeptide) MADLYENPMGLMGFEFIEFASPTPGTLEPIFEIMGFTKVATHRSKNVHLYRQGEINLILNNEPNSIASYFAAEHGPSVCGMAFRVKDSQKAYNRALELGAQPIHIDTGPMELNLPAIKGIGGAPLYLIDRFGEGSSIYDIDFVYLEGVERNPVGAGLKVIDHLTHNVYRGRMVYWANFYEKLFNFREARYFDIKGEYTGLTSKAMSAPDGMIRIPLNEESSKGAGQIEEFLMQFNGEGIQHVAFLTDDLVKTWDALKKIGMRFMTAPADNYYEMLEGRLPDHGEPVDQLQARGILLDGSSVEGDKRLLLQIFSETLMGPVFFEFIQRKGDDGFGPDSFKVLFESVERDQVRRGVLTAD | 50% | 0.115 | 0.058
11 (protein, mutant HPPD polypeptide) MADLYENPMGLMGFEFIEFASPTPGTLEPIFEIMGFTKVATHRSKNVHLYRQGEINLILNNEPNSIASYFAAEHGPSVCGMAFRVKDSQKAYNRALELGAQPIHIDTGPMELNLPAIKGIGGAPLYLIDRFGEGSSIYDIDFVYLEGVERNPVGAGLKVIDHLTHNVYRGRMVYWANFYEKLFNFREARYFDIKGEYTGLTSKAMSAPDGMIRIPLNEESSKGAGQIEEFLMQFNGEGIQHVAFLTDDLVKTWDALKKIGMRFMTAPPDTYYEMLEGRLPDHGEPVDQLQARGILLDGSSVEGDKRLLLQIFSETLMGPVFFEFIQRKGDDGFGPDSFKVLFESVERDQVRRGVLTAD | 44% | 0.160 | 0.071
